Test results: the supplement of paper PMC5998384

How the values were obtained:
[1] = system: HeLa Kyoto; assay: solubility in G1/S (NP-40 vs SDS abundance) (log2 ratio); higher = more soluble; settings: cell cycle stage: G1/S
[2] = system: HeLa Kyoto; assay: melting temperature (median over replicates), in situ; higher = more thermally stable
[3] = system: HeLa Kyoto; assay: solubility change mitosis vs G1/S (difference of NP-40 vs SDS log2 ratios) (log2 ratio difference); higher = more soluble in mitosis
[4] = system: HeLa Kyoto; assay: thermal stability score vs G1/S (z-score of summed log2 fold changes over temperatures); higher = more thermally stable than in G1/S
[5] = cell cycle stage: early G1 (4.5 h after nocodazole release)
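Throughout, for melting temperature (median over replicates), in situ: HeLa Kyoto cells synchronized by double thymidine or nocodazole block, proteins quantified by TMT10plex mass spectrometry, three independent biological replicates.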
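Throughout, for solubility change mitosis vs G1/S (difference of NP-40 vs SDS log2 ratios): synchronized HeLa Kyoto cells (double thymidine block for G1/S, nocodazole release for mitosis), protein amounts in NP-40 versus SDS lysates quantified by mass spectrometry, three biological replicates.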
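Throughout, for solubility in G1/S (NP-40 vs SDS abundance): HeLa Kyoto cells arrested at G1/S by double thymidine block, proteins quantified by TMT10plex mass spectrometry in mild NP-40 versus SDS extracts, three biological replicates.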
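Throughout, for thermal stability score vs G1/S (z-score of summed log2 fold changes over temperatures): synchronized HeLa Kyoto cells, proteins quantified by TMT10plex mass spectrometry, three biological replicates, mitosis taken 0.5 h after nocodazole release, G1/S directly after double thymidine block.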

Sequence | solubility in G1/S (log2) [1] | melting temperature ([2]; cell cycle stage: G1/S) [°C] | melting temperature ([2]; cell cycle stage: mitosis) [°C] | solubility change mitosis (log2) [3] | thermal stability score [4, 5] | thermal stability score ([4]; cell cycle stage: mitosis)
MPNQGEDCYFFFYSTCTKGDSCPFRHCEAAIGNETVCTLWQEGRCFRQVCRFRHMEIDKKRSEIPCYWENQPTGCQKLNCAFHHNRGRYVDGLFLPPSKTVLPTVPESPEEEVKASQLSVQQNKLSVQSNPSPQLRSVMKVESSENVPSPTHPPVVINAADDDEDDDDQFSEEGDETKTPTLQPTPEVHNGLRVTSVRKPAVNIKQGECLNFGIKTLEEIKSKKMKEKSKKQGEGSSGVSSLLLHPEPVPGPEKENVRTVVRTVTLSTKQGEEPLVRLSLTERLGKRKFSAGGDSDPPLKRSLAQRLGKKVEAPETNIDKTPKKAQVSKSLKERLGMSADPDNEDATDKVNKVGEIHVKTLEEILLERASQKRGELQTKLKTEGPSKTDDSTSGARSSSTIRIKTFSEVLAEKKHRQQEAERQKSKKDTTCIKLKIDSEIKKTVVLPPIVASRGQSEEPAGKTKSMQEVHIKTLEEIKLEKALRVQQSSESSTSSPSQHEATPGARRLLRITKRTGMKEEKNLQEGNEVDSQSSIRTEAKEASGETTGVDITKIQVKRCETMREKHMQKQQEREKSVLTPLRGDVASCNTQVAEKPVLTAVPGITRHLTKRLPTKSSQKVEVETSGIGDSLLNVKCAAQTLEKRGKAKPKVNVKPSVVKVVSSPKLAPKRKAVEMHAAVIAAVKPLSSSSVLQEPPAKKAAVAVVPLVSEDKSVTVPEAENPRDSLVLPPTQSSSDSSPPEVSGPSSSQMSMKTRRLSSASTGKPPLSVEDDFEKLIWEISGGKLEAEIDLDPGKDEDDLLLELSEMIDS [ZC3H11A] | -0.583 | 45.8 | 48.6 | 0.559 | 2.36 | 7.44
MPPPRTREGRDRRDHHRAPSEEEALEKWDWNCPETRRLLEDAFFREEDYIRQGSEECQKFWTFFERLQRFQNLKTSRKEEKDPGQPKHSIPALADLPRTYDPRYRINLSVLGPATRGSQGLGRHLPAERVAEFRRALLHYLDFGQKQAFGRLAKLQRERAALPIAQYGNRILQTLKEHQVVVVAGDTGCGKSTQVPQYLLAAGFSHVACTQPRRIACISLAKRVGFESLSQYGSQVGYQIRFESTRSAATKIVFLTVGLLLRQIQREPSLPQYEVLIVDEVHERHLHNDFLLGVLQRLLPTRPDLKVILMSATINISLFSSYFSNAPVVQVPGRLFPITVVYQPQEAEPTTSKSEKLDPRPFLRVLESIDHKYPPEERGDLLVFLSGMAEISAVLEAAQTYASHTQRWVVLPLHSALSVADQDKVFDVAPPGVRKCILSTNIAETSVTIDGIRFVVDSGKVKEMSYDPQAKLQRLQEFWISQASAEQRKGRAGRTGPGVCFRLYAESDYDAFAPYPVPEIRRVALDSLVLQMKSMSVGDPRTFPFIEPPPPASLETAILYLRDQGALDSSEALTPIGSLLAQLPVDVVIGKMLILGSMFSLVEPVLTIAAALSVQSPFTRSAQSSPECAAARRPLESDQGDPFTLFNVFNAWVQVKSERSRNSRKWCRRRGIEEHRLYEMANLRRQFKELLEDHGLLAGAQAAQVGDSYSRLQQRRERRALHQLKRQHEEGAGRRRKVLRLQEEQDGGSSDEDRAGPAPPGASDGVDIQDVKFKLRHDLAQLQAAASSAQDLSREQLALLKLVLGRGLYPQLAVPDAFNSSRKDSDQIFHTQAKQGAVLHPTCVFAGSPEVLHAQELEASNCDGSRDDKDKMSSKHQLLSFVSLLETNKPYLVNCVRIPALQSLLLFSRSLDTNGDCSRLVADGWLELQLADSESAIRLLAASLRLRARWESALDRQLAHQAQQQLEEEEEDTPVSPKEVATLSKELLQFTASKIPYSLRRLTGLEVQNMYVGPQTIPATPHLPGLFGSSTLSPHPTKGGYAVTDFLTYNCLTNDTDLYSDCLRTFWTCPHCGLHAPLTPLERIAHENTCPQAPQDGPPGAEEAALETLQKTSVLQRPYHCEACGKDFLFTPTEVLRHRKQHV [DHX34] | -0.242 | 50.1 | 49.8 | -0.0525 | 0.188 | 0.311
MPQYQTWEEFSRAAEKLYLADPMKARVVLKYRHSDGNLCVKVTDDLVCLVYKTDQAQDVKKIEKFHSQLMRLMVAKEARNVTMETE [SRP9] | -0.607 | 53.5 | 52.1 | 0.394 | -2.84 | -5.71
MPRARKGNTLRKGGQRRGGGARSSAQADSGSSDDEAASEARSTASECPSLLSTTAEDSLGGDVVDEQGQQEDLEEKLKEYVDCLTDKSAKTRQGALESLRLALASRLLPDFLLERRLTLADALEKCLKKGKGEEQALAAAVLGLLCVQLGPGPKGEELFHSLQPLLVSVLSDSTASPAARLHCASALGLGCYVAAADIQDLVSCLACLESVFSRFYGLGGSSTSPVVPASLHGLLSAALQAWALLLTICPSTQISHILDRQLPRLPQLLSSESVNLRIAAGETIALLFELARDLEEEFVYEDMEALCSVLRTLATDSNKYRAKADRRRQRSTFRAVLHSVEGGECEEEIVRFGFEVLYMDSWARHRIYAAFKEVLGSGMHHHLQNNELLRDIFGLGPVLLLDATALKACKVPRFEKHLYNAAAFKARTKARSRVRDKRADIL [IFRD2] | -0.734 | 56.3 | 54.5 | 0.211 | -2.6 | -1.01
MPRDNMASLIQRIARQACLTFRGSGGGRGASDRDAASGPEAPMQPGFPENLSKLKSLLTQLRAEDLNIAPRKATLQPLPPNLPPVTYMHIYETDGFSLGVFLLKSGTSIPLHDHPGMHGMLKVLYGTVRISCMDKLDAGGGQRPRALPPEQQFEPPLQPREREAVRPGVLRSRAEYTEASGPCILTPHRDNLHQIDAVEGPAAFLDILAPPYDPDDGRDCHYYRVLEPVRPKEASSSACDLPREVWLLETPQADDFWCEGEPYPGPKVFP [ADO] | 0.474 | 54.1 | 53.7 | 0.0512 | -2.72 | -3.58
MPRPGSAQRWAAVAGRWGCRLLALLLLVPGPGGASEITFELPDNAKQCFYEDIAQGTKCTLEFQVITGGHYDVDCRLEDPDGKVLYKEMKKQYDSFTFTASKNGTYKFCFSNEFSTFTHKTVYFDFQVGEDPPLFPSENRVSALTQMESACVSIHEALKSVIDYQTHFRLREAQGRSRAEDLNTRVAYWSVGEALILLVVSIGQVFLLKSFFSDKRTTTTRVGS [TMED7] | -0.0739 | 57.2 | 56.4 | -0.174 | 2.43 | 0.528
MPRRKKKVKEVSESRNLEKKDVETTSSVSVKRKRRLEDAFIVISDSDGEEPKEENGLQKTKTKQSNRAKCLAKRKIAQMTEEEQFALALKMSEQEAREVNSQEEEEEELLRKAIAESLNSCRPSDASATRSRPLATGPSSQSHQEKTTDSGLTEGIWQLVPPSLFKGSHISQGNEAEEREEPWDHTEKTEEEPVSGSSGSWDQSSQPVFENVNVKSFDRCTGHSAEHTQCGKPQESTGRGSAFLKAVQGSGDTSRHCLPTLADAKGLQDTGGTVNYFWGIPFCPDGVDPNQYTKVILCQLEVYQKSLKMAQRQLLNKKGFGEPVLPRPPSLIQNECGQGEQASEKNECISEDMGDEDKEERQESRASDWHSKTKDFQESSIKSLKEKLLLEEEPTTSHGQSSQGIVEETSEEGNSVPASQSVAALTSKRSLVLMPESSAEEITVCPETQLSSSETFDLEREVSPGSRDILDGVRIIMADKEVGNKEDAEKEVAISTFSSSNQVSCPLCDQCFPPTKIERHAMYCNGLMEEDTVLTRRQKEAKTKSDSGTAAQTSLDIDKNEKCYLCKSLVPFREYQCHVDSCLQLAKADQGDGPEGSGRACSTVEGKWQQRLKNPKEKGHSEGRLLSFLEQSEHKTSDADIKSSETGAFRVPSPGMEEAGCSREMQSSFTRRDLNESPVKSFVSISEATDCLVDFKKQVTVQPGSRTRTKAGRGRRRKF [UIMC1] | -0.219 | 51.5 | 52.5 | 0.107 | 1.12 | 1.21
MPSAKQRGSKGGHGAASPSEKGAHPSGGADDVAKKPPPAPQQPPPPPAPHPQQHPQQHPQNQAHGKGGHRGGGGGGGKSSSSSSASAAAAAAAASSSASCSRRLGRALNFLFYLALVAAAAFSGWCVHHVLEEVQQVRRSHQDFSRQREELGQGLQGVEQKVQSLQATFGTFESILRSSQHKQDLTEKAVKQGESEVSRISEVLQKLQNEILKDLSDGIHVVKDARERDFTSLENTVEERLTELTKSINDNIAIFTEVQKRSQKEINDMKAKVASLEESEGNKQDLKALKEAVKEIQTSAKSREWDMEALRSTLQTMESDIYTEVRELVSLKQEQQAFKEAADTERLALQALTEKLLRSEESVSRLPEEIRRLEEELRQLKSDSHGPKEDGGFRHSEAFEALQQKSQGLDSRLQHVEDGVLSMQVASARQTESLESLLSKSQEHEQRLAALQGRLEGLGSSEADQDGLASTVRSLGETQLVLYGDVEELKRSVGELPSTVESLQKVQEQVHTLLSQDQAQAARLPPQDFLDRLSSLDNLKASVSQVEADLKMLRTAVDSLVAYSVKIETNENNLESAKGLLDDLRNDLDRLFVKVEKIHEKV [CKAP4] | 0.635 | 52 | 52.4 | 0.148 | 5.49 | 6.55
MPSASASRKSQEKPREIMDAAEDYAKERYGISSMIQSQEKPDRVLVRVRDLTIQKADEVVWVRARVHTSRAKGKQCFLVLRQQQFNVQALVAVGDHASKQMVKFAANINKESIVDVEGVVRKVNQKIGSCTQQDVELHVQKIYVISLAEPRLPLQLDDAVRPEAEGEEEGRATVNQDTRLDNRVIDLRTSTSQAVFRLQSGICHLFRETLINKGFVEIQTPKIISAASEGGANVFTVSYFKNNAYLAQSPQLYKQMCICADFEKVFSIGPVFRAEDSNTHRHLTEFVGLDIEMAFNYHYHEVMEEIADTMVQIFKGLQERFQTEIQTVNKQFPCEPFKFLEPTLRLEYCEALAMLREAGVEMGDEDDLSTPNEKLLGHLVKEKYDTDFYILDKYPLAVRPFYTMPDPRNPKQSNSYDMFMRGEEILSGAQRIHDPQLLTERALHHGIDLEKIKAYIDSFRFGAPPHAGGGIGLERVTMLFLGLHNVRQTSMFPRDPKRLTP [DARS] | -0.115 | 49.4 | 49.2 | -0.127 | 0.0385 | 4.02
MPSATSHSGSGSKSSGPPPPSGSSGSEAAAGAGAAAPASQHPATGTGAVQTEAMKQILGVIDKKLRNLEKKKGKLDDYQERMNKGERLNQDQLDAVSKYQEVTNNLEFAKELQRSFMALSQDIQKTIKKTARREQLMREEAEQKRLKTVLELQYVLDKLGDDEVRTDLKQGLNGVPILSEEELSLLDEFYKLVDPERDMSLRLNEQYEHASIHLWDLLEGKEKPVCGTTYKVLKEIVERVFQSNYFDSTHNHQNGLCEEEEAASAPAVEDQVPEAEPEPAEEYTEQSEVESTEYVNRQFMAETQFTSGEKEQVDEWTVETVEVVNSLQQQPQAASPSVPEPHSLTPVAQADPLVRRQRVQDLMAQMQGPYNFIQDSMLDFENQTLDPAIVSAQPMNPTQNMDMPQLVCPPVHSESRLAQPNQVPVQPEATQVPLVSSTSEGYTASQPLYQPSHATEQRPQKEPIDQIQATISLNTDQTTASSSLPAASQPQVFQAGTSKPLHSSGINVNAAPFQSMQTVFNMNAPVPPVNEPETLKQQNQYQASYNQSFSSQPHQVEQTELQQEQLQTVVGTYHGSPDQSHQVTGNHQQPPQQNTGFPRSNQPYYNSRGVSRGGSRGARGLMNGYRGPANGFRGGYDGYRPSFSNTPNSGYTQSQFSAPRDYSGYQRDGYQQNFKRGSGQSGPRGAPRGRGGPPRPNRGMPQMNTQQVN [CAPRIN1] | -0.0442 | 54.8 | 54.9 | 0.14 | -0.0976 | -1.01
MPSKSLVMEYLAHPSTLGLAVGVACGMCLGWSLRVCFGMLPKSKTSKTHTDTESEASILGDSGEYKMILVVRNDLKMGKGKVAAQCSHAAVSAYKQIQRRNPEMLKQWEYCGQPKVVVKAPDEETLIALLAHAKMLGLTVSLIQDAGRTQIAPGSQTVLGIGPGPADLIDKVTGHLKLY [PTRH2] | 0.447 | 52.3 | 52.6 | 0.0782 | -0.625 | -2.48
